For this assay, the target named is BD-G72(95-153) (UniProt P59103). Put plainly: two-hybrid; β-galactosidase activity of AH109 transformants grown in SD/-2 broth at 30 °C, normalised to yeast with the AD and BD tags alone.
BD-G72(95-153), sequence (P59103 95-153): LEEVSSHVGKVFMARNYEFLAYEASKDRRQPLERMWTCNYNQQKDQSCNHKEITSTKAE

“AD-DAO (D-amino acid oxidase N-terminally tagged with the activation domain) (from UniProt P14920 1-347) (enzyme)”: the β-galactosidase activity as percent of AD-DAO/BD-G72 amounted to 38% and the β-galactosidase activity relative to the BD/AD tag baseline came out at 1.81 fold.

These data come from publication PMC3907796.
